These results are taken from PMC3220268.

The target in assay [1] is actin filaments (UniProt P68135). Nature of the assay: co-sedimentation; actin co-sedimentation (pelleting) of rArp2/3 complex with actin filaments, as described in ref. 46.
The target in assay [2] is gelsolin-capped actin filaments (UniProt P68135). The assay is described as follows: pointed end capping assay (elongation from gelsolin-capped actin filaments); gelsolin-capped actin filaments (100 nM), 4 µM actin with pyrene-labeled actin; slowing of pointed end elongation by rArp2/3 complex.

The term Kd denotes the concentration at which binding is half-saturated. In assay [1], “recombinant Arp2/3 complex with ARPC4 R105A and R106A mutations (from UniProt P61158 1-418; P61160 1-394; O15143 1-372; O15144 1-300; O15145 1-178; P59998 1-168; O15511 1-151)” gave a Kd of 1500 nM. This counts as single-digit micromolar. For “recombinant Arp2/3 complex with Arp2 T237A, T238A, and Y202A mutations (from UniProt P61158 1-418; P61160 1-394; O15143 1-372; O15144 1-300; O15145 1-178; P59998 1-168; O15511 1-151)”, the fold decrease in affinity against WT in assay [2] was 8 fold.
